Test results published in paper PMC6382169, “Molecular features of steroid-binding antidins and their use for assaying serum progesterone” (PLoS ONE, 2019).
Where a chain is given by its changes, count along the chain named. Numbers in names are those of the source. Where two headings read alike, the source gives them in different places.

Legend:
Avd = biological target: Avd; parameters: method as in PMID 17052607; conditions: read-out: Kd of Avd-HABA complex; cited from earlier work
[1] = Fluorometric assay: quenching of intrinsic protein fluorescence by unconjugated ligand; format: binding; conditions: 100 nM protein, pH 7, 25°C, read-out: Kd for progesterone
Procedure: The binding affinity of the unconjugated small molecules to antidins was determined utilizing the intrinsic fluorescence originating from the aromatic amino acid residues (mainly tryptophan and tyrosine) of Avd and the fluorescence quenching caused by ligand binding. In brief, 100 nM protein samples in 50 mM NaH2PO4/Na2HPO4, 650 mM NaCl, pH 7 were excited at 280 nm, and emission was collected at 350 nm using QuantaMaster Spectrofluorometer (Photon Technology International, Inc.) with 2 nm slits. The assay was performed in a quartz cuvette with stirring at 25°C. The ligand was added to the protein sample in small aliquots (6–50 000 nM) and the fluorescence intensity was monitored after a short incubation. The dissociation constant (Kd) was determined from the resulting quenching curve using GraphPad Prism (GraphPad Software, Inc.). The data were fitted to a quadratic equation [72] for tight binding interactions, which takes ligand depletion and nonspecific binding into account (described in detail in [38]) (Fig 6).

[2] = biological target: the molecule itself; assay: SEC; Superdex200 Increase 5/150GL, 50 mM sodium phosphate, 650 mM NaCl, pH 7, 0.1 ml/min, 20°C; molecular weight from a standard curve of elution volumes of markers
[3] = parameters: method as in PMID 26550684; conditions: fluorometry-based assay, non-conjugated ligand, earlier study; read-out: Kd for progesterone; cited from earlier work
[4] = biological target: the molecule itself; assay: crystal structure; co-crystallised with progesterone, sitting drop vapour diffusion, 21°C; 2.80 Å; two monomers in the asymmetric unit, tetrameric biological unit
[5] = Differential scanning calorimetry, no ligand; format: physicochemical; conditions: DSC, absence of ligand, 6.4 μM protein, pH 7
Procedure: (§1) The thermal stability of the antidin sbAvd-7 in the presence and absence of ligands was analyzed using an automated VP-Capillary DSC System (Malvern, Microcal Inc.) essentially as described in [73]. Protein samples in the sodium phosphate buffer (50 mM, pH 7) containing 650 mM NaCl were degassed prior to the measurement. The protein concentration in the cell was 6.4 μM, and the molar concentration of the ligands (D-biotin (Biochemica, Fluka) and progesterone (Steraloids Inc., USA)) were three times higher (Fig 6).

[6] = Differential scanning calorimetry with progesterone; format: binding; conditions: DSC, ligand three times the protein concentration
Procedure: as §1

[7] = Differential scanning calorimetry with biotin; format: binding; conditions: DSC, ligand three times the protein concentration
Procedure: as §1

In the case of `O=C(O)c1ccccc1N=Nc1ccc(O)cc1` [HABA, 2-(4’-hydroxybenzene)azobenzoic acid], the Kd (Avd) is listed as roughly 6000 nM.

B1: hbAvd-4: antidin S16A, Y33F, T40P, F72A, S73Y, S75Y, N118A; from AvLib-5, hydrocortisone panning (protein, UniProt P02701 25-152, looked up, variant S16A Y33F T40P F72A S73Y S75Y N118A)
Avidin: ARKCSLTGKWTNDLGANMTIGAVNSRGEFTGTFITAVTAPSNEIKESPLHGTQNTINKRTQPTFGFTVNWKAYEYTTVFTGQCFIDRNGKEVLKTMWLLRSSVNDIGDDWKATRVGIAIFTRLRTQKE
B1 showed a Kd [1] of 39 nM.

B2: sbAvd-7 antidin (engineered chicken avidin) (designed binder)
chain: ARKCSLTGKWTNRMNHNMTIGAVNSRGEFTGTYIASLNATSNEIKESPLHGTQNTINKRTQPTFGFTVNWKFSESTAVFTGQCFIDRNGKEVLKTMWLLRSSVNDIGDDWKATRVGINIFTRLRTQKE
notes: selected from the phage display library AvLib-4 (template sbAvd-1); Subcloned with the OmpA signal peptide and a C-terminal 6xHis-tag into pET101/D; source: E. coli BL21-AI or OverExpress C43(DE3), purified (Ni-NTA)
With B2 the “stoichiometry N” value [2] was 4.

B3: sbAvd-6: antidin with RMNH at 13-16 and VSSN at positions 35-38; from AvLib-3 (protein, UniProt P02701 25-152, looked up, variant D13R L14M G15N S16H T35V A36S V37S T38N)
Avidin: B2 chain with A35V, L37S, A77T
In the case of B3, the Kd [3] is listed as 117 nM.

B4: sbAvd-2 (I117Y): sbAvd-2 with stabilizing mutation I117Y; co-crystallized with progesterone, PDB:5LUR (protein)
chain: B2 chain with S36T, L37V, A77T, I117Y
For B4, the Kd [3] is listed as 180 nM.

B5: sbAvd-8: antidin with RMNH at 13-16, Y33F, A36Y, V37S, T38Y and T77A; from AvLib-4 (protein, UniProt P02701 25-152, looked up, variant D13R L14M G15N S16H Y33F A36Y V37S T38Y T77A)
Avidin: B2 chain with Y33F, A35T, S36Y, L37S, N38Y
B5 showed a Kd [1] of 11 nM.

B6: sbAvd-2: antidin with RMNH at 13-16 and ATVN at positions 35-38; from AvLib-3 (protein, UniProt P02701 25-152, looked up, variant D13R L14M G15N S16H T35A A36T T38N)
Avidin: B2 chain with S36T, L37V, A77T
For B6, the Kd [3] is given as 111 nM.

B7: sbAvd-5: antidin with RMNH at 13-16 and VPHP at positions 35-38; from AvLib-3 (protein, UniProt P02701 25-152, looked up, variant D13R L14M G15N S16H T35V A36P V37H T38P)
Avidin: B2 chain with A35V, S36P, L37H, N38P, A77T
In the case of B7, the Kd [3] is given as 108 nM.

B8: sbAvd-9: antidin with RMNH at 13-16, YYLP at 35-38 and T77A; from AvLib-4 (protein, UniProt P02701 25-152, looked up, variant D13R L14M G15N S16H T35Y A36Y V37L T38P T77A)
Avidin: B2 chain with A35Y, S36Y, N38P
Work on B8 yielded a Kd [1] of 13 nM.

B9: sbAvd-4: antidin with RMNH at 13-16 and PYLS at positions 35-38; from AvLib-3 (protein, UniProt P02701 25-152, looked up, variant D13R L14M G15N S16H T35P A36Y V37L T38S)
Avidin: B2 chain with A35P, S36Y, N38S, A77T
In the case of B9, the Kd [3] is given as 135 nM.

B10: sbAvd-2 (I117Y) antidin (engineered chicken avidin) (designed binder)
chain: B2 chain with S36T, L37V, A77T, I117Y
notes: position 37 stays V; Crystallised with progesterone; also called sbAvd-2 (I117Y) mutant
For B10, the “stoichiometry N” value [4] was 4.

B11: sbAvd-7: antidin with RMNH at 13-16, ASLN at 35-38 and T77A; from AvLib-4, progesterone panning (protein)
chain: B2 chain
modifications: left off: 6xHis, C-terminal, state not stated
notes: antidin with RMNH at 13-16, ASLN at 35-38 and T77A; from AvLib-4, progesterone panning
For B11, the Tm [5] was 85.84 °C, the ΔTm with progesterone [6] was 10.23 °C and the ΔTm with biotin [7] was 0.27 °C.
